Laboratory results as given in paper PMC8886820.
Read-outs that look alike come from different tables or passages of the source. Blank lines part the entries; values can stand above or below the substance they belong to.

Key:
[1] = target: Taxol-stabilized microtubules (UniProt P02550); experiment: TIRF microscopy of EGFP-tagged protein on surface-held microtubules
[2] = target: Taxol-stabilized microtubules (UniProt P02550); experiment: as above; remark: listed apart in the source
[3] = target: MBP-Spc105(10xMEED)-TST (D. melanogaster); experiment: pull-down
[4] = target: phospho-10xMEED (MBP-Spc105(10xMEED)-TST phosphorylated by activated Sli15(INBOX)-Ipl1) (D. melanogaster); experiment: pull-down

Sequence of Taxol-stabilized microtubules (P02550 whole entry, chain 1 of 2): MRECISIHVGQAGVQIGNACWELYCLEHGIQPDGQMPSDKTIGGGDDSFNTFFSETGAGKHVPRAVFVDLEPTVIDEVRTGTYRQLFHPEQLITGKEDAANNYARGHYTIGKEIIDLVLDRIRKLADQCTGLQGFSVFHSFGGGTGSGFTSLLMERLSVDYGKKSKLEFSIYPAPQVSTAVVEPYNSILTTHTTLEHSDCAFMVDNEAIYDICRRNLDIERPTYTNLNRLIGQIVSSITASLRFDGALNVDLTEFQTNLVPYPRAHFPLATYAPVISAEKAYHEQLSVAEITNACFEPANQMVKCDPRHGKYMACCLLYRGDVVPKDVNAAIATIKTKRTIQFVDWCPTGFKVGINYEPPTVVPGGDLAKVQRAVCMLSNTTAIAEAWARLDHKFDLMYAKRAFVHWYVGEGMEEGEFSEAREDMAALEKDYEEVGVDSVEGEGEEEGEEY
Sequence of Taxol-stabilized microtubules (P02554 whole entry, chain 2 of 2, further chain): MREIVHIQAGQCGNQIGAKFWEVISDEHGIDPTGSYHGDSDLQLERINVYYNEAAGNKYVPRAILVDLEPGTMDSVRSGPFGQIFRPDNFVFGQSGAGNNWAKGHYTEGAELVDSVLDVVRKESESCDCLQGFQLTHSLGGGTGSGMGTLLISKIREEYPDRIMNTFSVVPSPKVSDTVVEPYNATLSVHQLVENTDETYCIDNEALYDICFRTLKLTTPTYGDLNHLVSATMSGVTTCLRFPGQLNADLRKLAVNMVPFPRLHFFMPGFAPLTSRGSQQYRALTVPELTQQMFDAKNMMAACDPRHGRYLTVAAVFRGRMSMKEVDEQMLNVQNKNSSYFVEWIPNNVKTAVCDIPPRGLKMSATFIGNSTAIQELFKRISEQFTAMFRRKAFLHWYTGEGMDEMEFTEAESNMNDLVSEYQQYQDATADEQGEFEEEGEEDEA

percent of the MT binding of Spc105-B(1-400) in 150 mM KCl [1]: 12.5%
percent of the MT binding of Spc105-B(1-400) in 150 mM KCl [2]: 14.6%
percent reduction of MT binding against Spc105-B(1-400) without 1,6-HD [2]: 40%
Substance: Spc105-B(1-400)-EGFP (domain or fragment)

fold Bub3 bound against the MBP-TST control [3]: 2 fold
fold Bub3 bound against the unphosphorylated MBP-TST control [4]: 30 fold
Substance: Bub3-EGFP (natural protein)

percent of the MT binding of Spc105-B(1-400) [2]: < 50%
Substance: Spc105-A(1-400)-EGFP (domain or fragment)

percent of the MT binding of unphosphorylated Spc105-B(1-400) in 150 mM KCl [2]: 22.1%
Substance: Spc105-B(1-400)-EGFP phosphorylated with Sli15(INBOX)-Ipl1 (domain or fragment)
